Earlier results, collected in publication PMC12759081.

Target: PDS5B (Homo sapiens) (UniProt Q9NTI5)
Test: ITC

Wapl, sequence (Q7Z5K2 whole entry): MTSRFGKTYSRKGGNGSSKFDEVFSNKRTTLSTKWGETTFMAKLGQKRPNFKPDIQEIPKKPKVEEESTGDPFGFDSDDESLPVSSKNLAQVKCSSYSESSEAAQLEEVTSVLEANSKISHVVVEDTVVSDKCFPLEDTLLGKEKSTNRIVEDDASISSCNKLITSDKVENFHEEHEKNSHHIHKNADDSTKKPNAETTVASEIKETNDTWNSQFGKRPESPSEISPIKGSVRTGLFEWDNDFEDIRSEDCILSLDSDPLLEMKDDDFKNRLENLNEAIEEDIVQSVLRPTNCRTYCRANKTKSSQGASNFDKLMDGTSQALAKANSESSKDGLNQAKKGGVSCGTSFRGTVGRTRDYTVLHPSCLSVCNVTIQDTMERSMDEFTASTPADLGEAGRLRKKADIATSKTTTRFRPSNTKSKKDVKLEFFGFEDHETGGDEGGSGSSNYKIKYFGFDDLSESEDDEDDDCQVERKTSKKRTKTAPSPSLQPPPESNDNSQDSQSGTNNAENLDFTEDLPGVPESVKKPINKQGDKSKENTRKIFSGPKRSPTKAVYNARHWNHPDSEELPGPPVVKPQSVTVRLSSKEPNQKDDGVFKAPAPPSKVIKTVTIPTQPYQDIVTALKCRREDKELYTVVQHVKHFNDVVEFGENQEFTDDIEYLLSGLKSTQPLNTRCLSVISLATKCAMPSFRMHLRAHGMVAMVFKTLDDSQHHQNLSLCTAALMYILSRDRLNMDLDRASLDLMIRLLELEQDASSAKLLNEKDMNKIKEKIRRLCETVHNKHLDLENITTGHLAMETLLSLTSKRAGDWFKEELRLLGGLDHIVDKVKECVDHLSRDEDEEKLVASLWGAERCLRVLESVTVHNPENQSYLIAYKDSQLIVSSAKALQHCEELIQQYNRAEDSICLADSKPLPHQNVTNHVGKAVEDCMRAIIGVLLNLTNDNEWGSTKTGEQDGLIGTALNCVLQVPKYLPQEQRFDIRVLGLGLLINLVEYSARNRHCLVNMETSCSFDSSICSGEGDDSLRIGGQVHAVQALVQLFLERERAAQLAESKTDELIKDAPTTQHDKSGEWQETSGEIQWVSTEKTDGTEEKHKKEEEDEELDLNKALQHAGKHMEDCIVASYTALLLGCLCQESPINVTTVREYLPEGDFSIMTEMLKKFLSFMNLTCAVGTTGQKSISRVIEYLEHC
PDS5B (Homo sapiens), sequence (Q9NTI5 whole entry): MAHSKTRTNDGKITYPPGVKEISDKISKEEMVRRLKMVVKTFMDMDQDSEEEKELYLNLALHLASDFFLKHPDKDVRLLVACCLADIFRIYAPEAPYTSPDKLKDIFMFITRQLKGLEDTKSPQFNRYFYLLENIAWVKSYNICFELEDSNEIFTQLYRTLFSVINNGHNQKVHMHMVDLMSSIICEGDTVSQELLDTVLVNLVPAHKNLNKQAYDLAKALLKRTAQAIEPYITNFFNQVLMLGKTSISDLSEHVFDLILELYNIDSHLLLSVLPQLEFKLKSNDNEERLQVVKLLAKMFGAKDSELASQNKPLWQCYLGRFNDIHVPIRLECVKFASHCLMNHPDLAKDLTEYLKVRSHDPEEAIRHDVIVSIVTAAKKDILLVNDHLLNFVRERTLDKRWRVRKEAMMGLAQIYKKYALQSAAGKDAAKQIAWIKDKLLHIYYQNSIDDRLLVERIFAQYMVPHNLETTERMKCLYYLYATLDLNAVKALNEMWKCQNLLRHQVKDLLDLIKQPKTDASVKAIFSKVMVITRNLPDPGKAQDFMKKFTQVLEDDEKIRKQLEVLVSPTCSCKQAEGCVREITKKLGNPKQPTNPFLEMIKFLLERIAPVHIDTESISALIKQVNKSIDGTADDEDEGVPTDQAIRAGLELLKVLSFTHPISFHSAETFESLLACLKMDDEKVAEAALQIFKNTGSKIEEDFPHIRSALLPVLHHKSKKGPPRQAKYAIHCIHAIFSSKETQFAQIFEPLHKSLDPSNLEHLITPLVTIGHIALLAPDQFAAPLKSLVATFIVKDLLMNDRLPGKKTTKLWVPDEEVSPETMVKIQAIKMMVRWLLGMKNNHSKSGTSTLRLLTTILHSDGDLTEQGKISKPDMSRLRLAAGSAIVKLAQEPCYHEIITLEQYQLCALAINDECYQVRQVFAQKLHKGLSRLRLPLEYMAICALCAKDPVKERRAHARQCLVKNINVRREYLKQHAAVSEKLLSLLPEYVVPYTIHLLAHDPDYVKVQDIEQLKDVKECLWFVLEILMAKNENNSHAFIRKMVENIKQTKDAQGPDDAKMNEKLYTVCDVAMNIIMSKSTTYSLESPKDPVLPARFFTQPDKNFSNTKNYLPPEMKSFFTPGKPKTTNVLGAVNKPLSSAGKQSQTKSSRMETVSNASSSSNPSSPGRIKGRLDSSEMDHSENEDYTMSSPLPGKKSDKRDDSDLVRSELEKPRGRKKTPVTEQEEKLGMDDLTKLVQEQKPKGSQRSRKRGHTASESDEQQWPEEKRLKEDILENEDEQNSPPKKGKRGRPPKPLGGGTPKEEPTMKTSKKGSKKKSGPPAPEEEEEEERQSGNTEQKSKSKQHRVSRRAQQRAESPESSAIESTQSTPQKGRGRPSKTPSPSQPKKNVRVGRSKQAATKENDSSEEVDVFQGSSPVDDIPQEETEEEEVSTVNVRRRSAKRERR

- Kd: 6 µM
Substance: Wapl (from UniProt Q7Z5K2)
